Source: PMC4338336

Assays:
Msl5-(KH-QUA2) [1] = target: T1, Msl5-(KH-QUA2) (Saccharomyces cerevisiae, UniProt Q12186 144-271); test: EMSA
T1 sequence: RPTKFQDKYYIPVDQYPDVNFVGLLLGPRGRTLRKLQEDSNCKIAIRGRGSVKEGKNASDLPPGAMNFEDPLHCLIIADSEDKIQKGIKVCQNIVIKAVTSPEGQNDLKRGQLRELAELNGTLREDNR

Msl5-(KH-QUA2) [2] = target: T1, Msl5-(KH-QUA2); test: EMSA; remark: listed apart in the source

UAUACUAUCAA (ssRNA) [11-mer RNA A6U]
binding result (Msl5-(KH-QUA2) [1]): no binding

UAUACCAACAA (ssRNA) [11-mer RNA U4C]
binding result (Msl5-(KH-QUA2) [1]): no binding

UAUACGAACAA (ssRNA) [11-mer RNA U4G]
binding result (Msl5-(KH-QUA2) [1]): no binding

UAUACUAGCAA (ssRNA) [11-mer RNA A6G]
binding result (Msl5-(KH-QUA2) [1]): no binding

UAUACUAACAA (ssRNA) [11-mer branchpoint RNA (WT)]
apparent K (half saturation) (Msl5-(KH-QUA2) [2]): 140 nM
